Test results from patent US20150023971A1.

Columns and labels:
[1] = biological target: T1, …; experiment: SPOT length analysis, dot 5, HRP-S-protein detection
T1 sequence (peptide): IFRSSDFAKNFVQT

[2] = biological target: T2, …; experiment: SPOT length analysis, dot 12, anti-histidine detection
T2 sequence (peptide): IFRSSDFAKNFV

KNFVQT = biological target: T3, KNFVQT; experiment: SPOT length analysis, dot 65, anti-histidine detection
T3 sequence (peptide): KNFVQT

[3] = biological target: T4, …; experiment: SPOT length analysis, dot 22, anti-histidine detection
T4 sequence (peptide): RIFRSSDFAK

SDFAKNFV = biological target: T5, SDFAKNFV; experiment: SPOT length analysis, dot 42, HRP-S-protein detection
T5 sequence (peptide): SDFAKNFV

RSSDF = biological target: T6, RSSDF; experiment: SPOT length analysis, dot 70, anti-histidine detection
T6 sequence (peptide): RSSDF

[4] = biological target: T7, …; experiment: SPOT length analysis, dot 31, HRP-S-protein detection
T7 sequence (peptide): FRSSDFAKN

[5] = biological target: T8, …; experiment: SPOT length analysis, dot 9, HRP-S-protein detection
T8 sequence (peptide): FRSSDFAKNFVQT

[6] = biological target: T9, …; experiment: SPOT length analysis, dot 28, HRP-S-protein detection
T9 sequence (peptide): DFAKNFVQTD

RIFRSSD = biological target: T10, RIFRSSD; experiment: SPOT length analysis, dot 46, anti-histidine detection
T10 sequence (peptide): RIFRSSD

SSDF = biological target: T11, SSDF; experiment: SPOT length analysis, dot 83, HRP-S-protein detection
T11 sequence (peptide): SSDF

AKNFVQTD = biological target: T12, AKNFVQTD; experiment: SPOT length analysis, dot 45, anti-histidine detection
T12 sequence (peptide): AKNFVQTD

SSDFAKN = biological target: T13, SSDFAKN; experiment: SPOT length analysis, dot 50, HRP-S-protein detection
T13 sequence (peptide): SSDFAKN

[7] = biological target: T14, …; experiment: SPOT length analysis, dot 34, anti-histidine detection
T14 sequence (peptide): SDFAKNFVQ

FRSSD = biological target: T15, FRSSD; experiment: SPOT length analysis, dot 69, HRP-S-protein detection
T15 sequence (peptide): FRSSD

FAKNFVQ = biological target: T16, FAKNFVQ; experiment: SPOT length analysis, dot 53, HRP-S-protein detection
T16 sequence (peptide): FAKNFVQ

RSSDFA = biological target: T17, RSSDFA; experiment: SPOT length analysis, dot 59, anti-histidine detection
T17 sequence (peptide): RSSDFA

IFRSS = biological target: T18, IFRSS; experiment: SPOT length analysis, dot 68, anti-histidine detection
T18 sequence (peptide): IFRSS

FAKNF = biological target: T19, FAKNF; experiment: SPOT length analysis, dot 74, HRP-S-protein detection
T19 sequence (peptide): FAKNF

DFAKNFVQ = biological target: T20, DFAKNFVQ; experiment: SPOT length analysis, dot 43, anti-histidine detection
T20 sequence (peptide): DFAKNFVQ

KNFVQ = biological target: T21, KNFVQ; experiment: SPOT length analysis, dot 76, HRP-S-protein detection
T21 sequence (peptide): KNFVQ

[8] = biological target: T22, …; experiment: SPOT length analysis, dot 26, HRP-S-protein detection
T22 sequence (peptide): SSDFAKNFVQ

AKNFVQT = biological target: T23, AKNFVQT; experiment: SPOT length analysis, dot 54, HRP-S-protein detection
T23 sequence (peptide): AKNFVQT

DFAK = biological target: T24, DFAK; experiment: SPOT length analysis, dot 85, HRP-S-protein detection
T24 sequence (peptide): DFAK

SDFAKNF = biological target: T25, SDFAKNF; experiment: SPOT length analysis, dot 51, HRP-S-protein detection
T25 sequence (peptide): SDFAKNF

IFRSSD [9] = biological target: T26, IFRSSD; experiment: SPOT length analysis, dot 57, anti-histidine detection
T26 sequence (peptide): IFRSSD

AKNFV = biological target: T27, AKNFV; experiment: SPOT length analysis, dot 75, anti-histidine detection
T27 sequence (peptide): AKNFV

[10] = biological target: T28, sortilin 4-mer peptide RIFR (length analysis); experiment: SPOT length analysis, dot 79, HRP-S-protein detection
T28 sequence (peptide, C-terminus anchored to the cellulose membrane through a beta-alanine linker): RIFR

SSDFA = biological target: T29, SSDFA; experiment: SPOT length analysis, dot 71, anti-histidine detection
T29 sequence (peptide): SSDFA

NFVQT = biological target: T30, NFVQT; experiment: SPOT length analysis, dot 77, HRP-S-protein detection
T30 sequence (peptide): NFVQT

IFRSSDF = biological target: T31, IFRSSDF; experiment: SPOT length analysis, dot 47, anti-histidine detection
T31 sequence (peptide): IFRSSDF

[11] = biological target: T32, …; experiment: SPOT length analysis, dot 32, HRP-S-protein detection
T32 sequence (peptide): RSSDFAKNF

[12] = biological target: T8, …; experiment: SPOT length analysis, dot 9, anti-histidine detection
[13] = biological target: T33, …; experiment: SPOT length analysis, dot 29, anti-histidine detection
T33 sequence (peptide): RIFRSSDFA

NFVQ = biological target: T34, NFVQ; experiment: SPOT length analysis, dot 89, anti-histidine detection
T34 sequence (peptide): NFVQ

AKNFVQ = biological target: T35, AKNFVQ; experiment: SPOT length analysis, dot 64, HRP-S-protein detection
T35 sequence (peptide): AKNFVQ

[14] = biological target: T36, …; experiment: SPOT length analysis, dot 23, anti-histidine detection
T36 sequence (peptide): IFRSSDFAKN

DFAKN = biological target: T37, DFAKN; experiment: SPOT length analysis, dot 73, HRP-S-protein detection
T37 sequence (peptide): DFAKN

IFRSSD [15] = biological target: T26, IFRSSD; experiment: SPOT length analysis, dot 57, HRP-S-protein detection
RSSDFAKN = biological target: T38, RSSDFAKN; experiment: SPOT length analysis, dot 40, HRP-S-protein detection
T38 sequence (peptide): RSSDFAKN

[16] = biological target: T39, …; experiment: SPOT length analysis, dot 25, HRP-S-protein detection
T39 sequence (peptide): RSSDFAKNFV

[17] = biological target: T40, …; experiment: SPOT length analysis, dot 19, anti-histidine detection
T40 sequence (peptide): RSSDFAKNFVQ

RIFRSS = biological target: T41, RIFRSS; experiment: SPOT length analysis, dot 56, HRP-S-protein detection
T41 sequence (peptide): RIFRSS

AKNF = biological target: T42, AKNF; experiment: SPOT length analysis, dot 87, HRP-S-protein detection
T42 sequence (peptide): AKNF

KNFV = biological target: T43, KNFV; experiment: SPOT length analysis, dot 88, anti-histidine detection
T43 sequence (peptide): KNFV

DFAKNFV = biological target: T44, DFAKNFV; experiment: SPOT length analysis, dot 52, anti-histidine detection
T44 sequence (peptide): DFAKNFV

[18] = biological target: T45, …; experiment: SPOT length analysis, dot 16, HRP-S-protein detection
T45 sequence (peptide): RIFRSSDFAKN

[19] = biological target: T46, …; experiment: SPOT length analysis, dot 14, anti-histidine detection
T46 sequence (peptide): RSSDFAKNFVQT

- BLU Sprotein [1]: 190000 BLU
- BLU His [2]: 45100 BLU
- BLU His (KNFVQT): 15400 BLU
- BLU His [3]: 45500 BLU
- BLU Sprotein (SDFAKNFV): 15500 BLU
- BLU His (RSSDF): 16100 BLU
- BLU Sprotein [4]: 20300 BLU
- BLU Sprotein [5]: 223000 BLU
- BLU Sprotein [6]: 19000 BLU
- BLU His (RIFRSSD): 20200 BLU
- BLU Sprotein (SSDF): 14000 BLU
- BLU His (AKNFVQTD): 16000 BLU
- BLU Sprotein (SSDFAKN): 15900 BLU
- BLU His [7]: 18400 BLU
- BLU Sprotein (FRSSD): 15000 BLU
- BLU Sprotein (FAKNFVQ): 20300 BLU
- BLU His (RSSDFA): 18300 BLU
- BLU His (IFRSS): 25300 BLU
- BLU Sprotein (FAKNF): 17500 BLU
- BLU His (DFAKNFVQ): 15500 BLU
- BLU Sprotein (KNFVQ): 15700 BLU
- BLU Sprotein [8]: 18500 BLU
- BLU Sprotein (AKNFVQT): 16700 BLU
- BLU Sprotein (DFAK): 13300 BLU
- BLU Sprotein (SDFAKNF): 17200 BLU
- BLU His (IFRSSD [9]): 17900 BLU
- BLU His (AKNFV): 17500 BLU
- BLU Sprotein [10]: 166000 BLU
- BLU His (SSDFA): 15800 BLU
- BLU Sprotein (NFVQT): 15600 BLU
- BLU His (IFRSSDF): 24400 BLU
- BLU Sprotein [11]: 19500 BLU
- BLU His [12]: 19700 BLU
- BLU His [13]: 43400 BLU
- BLU His (NFVQ): 14700 BLU
- BLU Sprotein (AKNFVQ): 14100 BLU
- BLU His [14]: 19700 BLU
- BLU Sprotein (DFAKN): 15600 BLU
- BLU Sprotein (IFRSSD [15]): 18100 BLU
- BLU Sprotein (RSSDFAKN): 17200 BLU
- BLU Sprotein [16]: 25400 BLU
- BLU His [17]: 26000 BLU
- BLU Sprotein (RIFRSS): 94400 BLU
- BLU Sprotein (AKNF): 13700 BLU
- BLU His (KNFV): 14900 BLU
- BLU His (DFAKNFV): 17300 BLU
- BLU Sprotein [18]: 63600 BLU
- BLU His [19]: 24700 BLU
B1: recombinant his-S-tagged pro-domain of human BDNF (residues Ala1-Arg110), from pET-30 Xa/LIC, E. coli (protein, not shown: small tags and cut ends)
chain: APMKEANIRGQGGLAYPGVRTHGTLESVNGPKAGSGLTSLADTFEHVIEELLDEDQKVRPNEENNKDADLYTSRVMLSSQVPLEPPLLFLLEEYKNYLDAANMSMRVRR
